Reference: article PMC4897736, “Structural and biochemical characterization of the cell fate determining nucleotidyltransferase fold protein MAB21L1” (Scientific Reports, 2016)

Legend:
[1] = molecular target: T1, MAB21L1 (Homo sapiens, UniProt Q13394); assay: ITC, thermal shift; format: binding
T1 construct: full length
T1 sequence (Q13394 1-359): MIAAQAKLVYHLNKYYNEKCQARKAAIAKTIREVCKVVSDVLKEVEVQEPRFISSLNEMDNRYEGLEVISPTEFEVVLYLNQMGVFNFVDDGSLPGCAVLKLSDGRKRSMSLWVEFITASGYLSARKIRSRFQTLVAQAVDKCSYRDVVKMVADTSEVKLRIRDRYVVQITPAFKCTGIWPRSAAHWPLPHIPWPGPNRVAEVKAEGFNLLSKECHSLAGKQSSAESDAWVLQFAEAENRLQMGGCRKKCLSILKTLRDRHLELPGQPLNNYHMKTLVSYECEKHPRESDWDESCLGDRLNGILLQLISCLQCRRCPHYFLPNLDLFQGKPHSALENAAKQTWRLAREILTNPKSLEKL

[2] = molecular target: T1, MAB21L1; assay: co-crystal structure ([…] Å), ITC, thermal shift; format: binding
[3] = molecular target: T2, MAB21L1 (Homo sapiens, UniProt Q13394 1-359); assay: EMSA; 0.5 uM nucleic acid; EMSA: 20 mM Tris pH 8.0, 200 mM NaCl, 30 min on ice, 1% agarose gel, Gel-Red stain; details: protein: recombinant; tags: His-MBP tag removed by TEV; label: none (Gel-Red stain); single strand
T2 sequence: T1 sequence (Q13394 1-359)

[4] = molecular target: T2, MAB21L1; assay: EMSA; 1 uM nucleic acid; EMSA: 20 mM Tris pH 8.0, 200 mM NaCl, 30 min on ice, 1% agarose gel, Gel-Red stain; details: protein: recombinant; tags: His-MBP tag removed by TEV; label: none (Gel-Red stain); blunt

Nc1ncnc2c1ncn2[C@@H]1O[C@H](COP(=O)(O)OP(=O)(O)O)[C@@H](O)[C@H]1O [ADP]
Kd [1]: 3100 nM

Nc1ncnc2c1ncn2[C@@H]1O[C@H](COP(=O)(O)OP(=O)(O)OP(=O)(O)O)[C@@H](O)[C@H]1O [ATP]
Kd [1]: 340 nM

Nc1ccn([C@@H]2O[C@H](COP(=O)(O)OP(=O)(O)OP(=O)(O)O)[C@@H](O)[C@H]2O)c(=O)n1 [CTP]
Kd [2]: 410 nM

GGAUACGUAACAACGCUUAUGCAUCGCCCCGCUACAUCCCUGAGCUGAC (ssRNA) [50mer ssRNA]
apparent K (half saturation) [3]: 3.3 µM

GGATACGTAACAACGCTTATGCATCGCCCCGCTACATCCCTGAGCTGAC (ssDNA) [50mer ssDNA]
apparent K (half saturation) [3]: 6.7 µM

B1: 50mer dsRNA (dsRNA)
RNA 1: GGAUACGUAACAACGCUUAUGCAUCGCCCCGCUACAUCCCUGAGCUGAC
RNA 2: GUCAGCUCAGGGAUGUAGCGGGGCGAUGCAUAAGCGUUGUUACGUAUCC
apparent K (half saturation) [4]: 5 µM

B2: 50mer dsDNA (dsDNA)
DNA 1: GGATACGTAACAACGCTTATGCATCGCCCCGCTACATCCCTGAGCTGAC
DNA 2: GTCAGCTCAGGGATGTAGCGGGGCGATGCATAAGCGTTGTTACGTATCC
apparent K (half saturation) [4]: 6 µM
